B1: library; numbered along this chain (parent)
chain: MRKPRAAVGSGHRKQAASQEGRQKHAKNNSQAKPSACDGLARQPEEVVLQASVSSYHLFRDVAEVTAFRGSLLSWYDQEKRDLPWRRRAEDEMDLDRRAYAVWVSEVMLQQTQVATVINYYTGWMQKWPTLQDLASASLEEVNQLWAGLGYYSRGRRLQEGARKVVEELGGHMPRTAETLQQLLPGVGRYTAGAIASIAFGQATGVVDGNVARVLCRVRAIGADPSSTLVSQQLWGLAQQLVDPARPGDFNQAAMELGATVCTPQRPLCSQCPVESLCRARQRVEQEQLLASGSLSGSPDVEECAPNTGQCHLCLPPSEPWDQTLGVVNFPRKASRKPPREESSATCVLEQPGALGAQILLVQRPNSGLLAGLWEFPSVTWEPSEQLQRKALLQELQRWAGPLPATHLRHLGEVVHTFSHIKLTYQVYGLALEGQTPVTTVPPGARWLTQEEFHTAAVSTAMKKVFRVYQGQQPGTCMGSKRSQVSSPCSRKKPRMGQQVLDNFFRSHISTDAHSLNSAAQ

Variants of: B1
Test: 8OG:A repair function score (normalized; synonymous = 0, nonsense = -1) (normalized log-likelihood score); higher = more repair activity (WT-like)
Details: with 8OG:A DNA repair reporter (GFP) in HEK-293 MUTYH KO cells
Method in brief: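 After 72 h, viable mCherry+ cells were split into GFP+ (repair) and GFP− bins in three replicates per tile. These cells were MUTYH knockout HEK-293 cells holding lentiviral MUTYH cDNA NNN codon-scan libraries, kept in 10 pg/ml doxycycline and co-transfected with mCherry plus an 8OG:A GFP repair reporter. Sequencing of tile amplicons gave per-tile Rosace fitness scores, normalized into a repair function score anchored on synonymous and nonsense distributions. Synonymous medians were fixed at 0, nonsense at -1, and variants under 300 counts per million at the start were removed.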
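Further: cells sorted at 72 h after reporter transfection.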

| Variant | 8OG:A repair function score |
| --- | --- |
| MRKPRAAVGSGHRKQAASQEGRQKHAKNNSQAKPSACDGLARQPEEVVLQASVSSYHLFRDVAEVTAFRGSLLSWYDQEKRDLPWRRRAEDEMDLDRRAYAVWVSEVMLQQTQVATVINYYTGWMQKWPTLQDLASASLEEVNQLWAGLGYYSRGRRLQEGARKVVEELGGHMPRTAETLQQLLPGVGRYTAGAIASIAFGQATGVVDGNVARVLCRVRAIGADPSSTLVSQQLWGLAQQLVDPARPGDFNQAAMELGATVCTPQRPLCSQCPVESLCRARQRVEQEQLLASGSLSGSPDVEECAPNTGQCHLCLPPSEPWDQTLGVVNFPRKASRKPPREESSATCVLEQPGALGAQILLVQRPNSGLLAGLWEFPSVTWEPSEQLQRKALLQELQRWAGPLPATHLRHLGEVVHTFSHIKLTYQVYGLALEGQTPVTTVPPGARWLTQEEFHTAAVSTAMKKVFRVYQGQQPGTCLGSKRSQVSSPCSRKKPRMGQQVLDNFFRSHISTDAHSLNSAAQ [M478L] | -0.0153 |
| MRKPRAAVGSGHRKQAASQEGRQKHAKNNSQAKPSACDGLARQPEEVVLQASVSSYHLFRDVAEVTAFRGSLLSWYDQEKRDLPWRRRAEDEMDLDRRAYAVWVSEVMLQQTQVATVINYYTGWMQKWPTLQDLASASLEEVNQLWAGLGYYSRGRRLQEGARKVVEELGGHMPRTAETLQQLLPGVGRYTAGAIASIAFGQATGVVDGNVARVLCRVRAIGADPSSTLVSQQLWGLAQQLVDPARPGDFNQAAMELGATVCTPQRPLCSQCPVESLCRARQRVEQEQLLASGSLSGSPDVEECAPNTGQCHLCLPPSEPWDQTLGVVNFPRKASRKPPREESSATCVLEQPGALGAQILLVQRPNSGLLAGLWEFPSVTWEPSEQLQRKALLQELQRWAGPLPATHLRHLGEVVHTFSHIKLTYQVYGLALEGQTPVTTVPPGARWLTQEEFHTAAVSTAMKKVFRVYQGQQPGTCKGSKRSQVSSPCSRKKPRMGQQVLDNFFRSHISTDAHSLNSAAQ [M478K] | 0.00017 |
| MRKPRAAVGSGHRKQAASQEGRQKHAKNNSQAKPSACDGLARQPEEVVLQASVSSYHLFRDVAEVTAFRGSLLSWYDQEKRDLPWRRRAEDEMDLDRRAYAVWVSEVMLQQTQVATVINYYTGWMQKWPTLQDLASASLEEVNQLWAGLGYYSRGRRLQEGARKVVEELGGHMPRTAETLQQLLPGVGRYTAGAIASIAFGQATGVVDGNVARVLCRVRAIGADPSSTLVSQQLWGLAQQLVDPARPGDFNQAAMELGATVCTPQRPLCSQCPVESLCRARQRVEQEQLLASGSLSGSPDVEECAPNTGQCHLCLPPSEPWDQTLGVVNFPRKASRKPPREESSATCVLEQPGALGAQILLVQRPNSGLLAGLWEFPSVTWEPSEQLQRKALLQELQRWAGPLPATHLRHLGEVVHTFSHIKLTYQVYGLALEGQTPVTTVPPGARWLTQEEFHTAAVSTAMKKVFRVYQGQQPGTCIGSKRSQVSSPCSRKKPRMGQQVLDNFFRSHISTDAHSLNSAAQ [M478I] | -0.0519 |
| MRKPRAAVGSGHRKQAASQEGRQKHAKNNSQAKPSACDGLARQPEEVVLQASVSSYHLFRDVAEVTAFRGSLLSWYDQEKRDLPWRRRAEDEMDLDRRAYAVWVSEVMLQQTQVATVINYYTGWMQKWPTLQDLASASLEEVNQLWAGLGYYSRGRRLQEGARKVVEELGGHMPRTAETLQQLLPGVGRYTAGAIASIAFGQATGVVDGNVARVLCRVRAIGADPSSTLVSQQLWGLAQQLVDPARPGDFNQAAMELGATVCTPQRPLCSQCPVESLCRARQRVEQEQLLASGSLSGSPDVEECAPNTGQCHLCLPPSEPWDQTLGVVNFPRKASRKPPREESSATCVLEQPGALGAQILLVQRPNSGLLAGLWEFPSVTWEPSEQLQRKALLQELQRWAGPLPATHLRHLGEVVHTFSHIKLTYQVYGLALEGQTPVTTVPPGARWLTQEEFHTAAVSTAMKKVFRVYQGQQPGTCHGSKRSQVSSPCSRKKPRMGQQVLDNFFRSHISTDAHSLNSAAQ [M478H] | -0.119 |
| MRKPRAAVGSGHRKQAASQEGRQKHAKNNSQAKPSACDGLARQPEEVVLQASVSSYHLFRDVAEVTAFRGSLLSWYDQEKRDLPWRRRAEDEMDLDRRAYAVWVSEVMLQQTQVATVINYYTGWMQKWPTLQDLASASLEEVNQLWAGLGYYSRGRRLQEGARKVVEELGGHMPRTAETLQQLLPGVGRYTAGAIASIAFGQATGVVDGNVARVLCRVRAIGADPSSTLVSQQLWGLAQQLVDPARPGDFNQAAMELGATVCTPQRPLCSQCPVESLCRARQRVEQEQLLASGSLSGSPDVEECAPNTGQCHLCLPPSEPWDQTLGVVNFPRKASRKPPREESSATCVLEQPGALGAQILLVQRPNSGLLAGLWEFPSVTWEPSEQLQRKALLQELQRWAGPLPATHLRHLGEVVHTFSHIKLTYQVYGLALEGQTPVTTVPPGARWLTQEEFHTAAVSTAMKKVFRVYQGQQPGTCNGSKRSQVSSPCSRKKPRMGQQVLDNFFRSHISTDAHSLNSAAQ [M478N] | -0.0119 |
| MRKPRAAVGSGHRKQAASQEGRQKHAKNNSQAKPSACDGLARQPEEVVLQASVSSYHLFRDVAEVTAFRGSLLSWYDQEKRDLPWRRRAEDEMDLDRRAYAVWVSEVMLQQTQVATVINYYTGWMQKWPTLQDLASASLEEVNQLWAGLGYYSRGRRLQEGARKVVEELGGHMPRTAETLQQLLPGVGRYTAGAIASIAFGQATGVVDGNVARVLCRVRAIGADPSSTLVSQQLWGLAQQLVDPARPGDFNQAAMELGATVCTPQRPLCSQCPVESLCRARQRVEQEQLLASGSLSGSPDVEECAPNTGQCHLCLPPSEPWDQTLGVVNFPRKASRKPPREESSATCVLEQPGALGAQILLVQRPNSGLLAGLWEFPSVTWEPSEQLQRKALLQELQRWAGPLPATHLRHLGEVVHTFSHIKLTYQVYGLALEGQTPVTTVPPGARWLTQEEFHTAAVSTAMKKVFRVYQGQQPGTCGGSKRSQVSSPCSRKKPRMGQQVLDNFFRSHISTDAHSLNSAAQ [M478G] | 0.0207 |
